Assay results as given in US20110118131A1 (published 2011).

B1: ING-1 light chain L99D (Fab, V domains shown)
VH: QIQLVQSGPELKKPGETVKISCKASGYTFTKYGMNWVKQAPGKGLKWMGWINTYTEEPTYGDDFKGRFAFSLETSASTANLQINNLKSEDTATYFCARFGSAVDYWGQGTSVTVSS
VL: DIVMTQAAFSNPVTLGTSGSISCRSSKSLLHSNGITYLYWYLQKPGQSPQLLIYQMSNLASGVPDRFSSSGSGTDFTLRISRVEAEDVGVYYCAQNLEDPRTFGGGTKLEMKR
notes: Fab, periplasmic extract
B2: ING-1 light chain P100S (Fab, V domains shown)
VH: QIQLVQSGPELKKPGETVKISCKASGYTFTKYGMNWVKQAPGKGLKWMGWINTYTEEPTYGDDFKGRFAFSLETSASTANLQINNLKSEDTATYFCARFGSAVDYWGQGTSVTVSS
VL: DIVMTQAAFSNPVTLGTSGSISCRSSKSLLHSNGITYLYWYLQKPGQSPQLLIYQMSNLASGVPDRFSSSGSGTDFTLRISRVEAEDVGVYYCAQNLELSRTFGGGTKLEMKR
notes: Fab, periplasmic extract
B3: ING-1 light chain P100K (Fab, V domains shown)
VH: QIQLVQSGPELKKPGETVKISCKASGYTFTKYGMNWVKQAPGKGLKWMGWINTYTEEPTYGDDFKGRFAFSLETSASTANLQINNLKSEDTATYFCARFGSAVDYWGQGTSVTVSS
VL: DIVMTQAAFSNPVTLGTSGSISCRSSKSLLHSNGITYLYWYLQKPGQSPQLLIYQMSNLASGVPDRFSSSGSGTDFTLRISRVEAEDVGVYYCAQNLELKRTFGGGTKLEMKR
notes: Fab, periplasmic extract
B4: ING-1 light chain L99Q (Fab, V domains shown)
VH: QIQLVQSGPELKKPGETVKISCKASGYTFTKYGMNWVKQAPGKGLKWMGWINTYTEEPTYGDDFKGRFAFSLETSASTANLQINNLKSEDTATYFCARFGSAVDYWGQGTSVTVSS
VL: DIVMTQAAFSNPVTLGTSGSISCRSSKSLLHSNGITYLYWYLQKPGQSPQLLIYQMSNLASGVPDRFSSSGSGTDFTLRISRVEAEDVGVYYCAQNLEQPRTFGGGTKLEMKR
notes: Fab, periplasmic extract
B5: ING-1 light chain N33K (Fab, V domains shown)
VH: QIQLVQSGPELKKPGETVKISCKASGYTFTKYGMNWVKQAPGKGLKWMGWINTYTEEPTYGDDFKGRFAFSLETSASTANLQINNLKSEDTATYFCARFGSAVDYWGQGTSVTVSS
VL: DIVMTQAAFSNPVTLGTSGSISCRSSKSLLHSKGITYLYWYLQKPGQSPQLLIYQMSNLASGVPDRFSSSGSGTDFTLRISRVEAEDVGVYYCAQNLELPRTFGGGTKLEMKR
notes: Fab, periplasmic extract
B6: ING-1 light chain L99K (Fab, V domains shown)
VH: QIQLVQSGPELKKPGETVKISCKASGYTFTKYGMNWVKQAPGKGLKWMGWINTYTEEPTYGDDFKGRFAFSLETSASTANLQINNLKSEDTATYFCARFGSAVDYWGQGTSVTVSS
VL: DIVMTQAAFSNPVTLGTSGSISCRSSKSLLHSNGITYLYWYLQKPGQSPQLLIYQMSNLASGVPDRFSSSGSGTDFTLRISRVEAEDVGVYYCAQNLEKPRTFGGGTKLEMKR
notes: Fab, periplasmic extract
B7: ING-1 light chain L99E (Fab, V domains shown)
VH: QIQLVQSGPELKKPGETVKISCKASGYTFTKYGMNWVKQAPGKGLKWMGWINTYTEEPTYGDDFKGRFAFSLETSASTANLQINNLKSEDTATYFCARFGSAVDYWGQGTSVTVSS
VL: DIVMTQAAFSNPVTLGTSGSISCRSSKSLLHSNGITYLYWYLQKPGQSPQLLIYQMSNLASGVPDRFSSSGSGTDFTLRISRVEAEDVGVYYCAQNLEEPRTFGGGTKLEMKR
notes: Fab, periplasmic extract
B8: ING-1 light chain L99N (Fab, V domains shown)
VH: QIQLVQSGPELKKPGETVKISCKASGYTFTKYGMNWVKQAPGKGLKWMGWINTYTEEPTYGDDFKGRFAFSLETSASTANLQINNLKSEDTATYFCARFGSAVDYWGQGTSVTVSS
VL: DIVMTQAAFSNPVTLGTSGSISCRSSKSLLHSNGITYLYWYLQKPGQSPQLLIYQMSNLASGVPDRFSSSGSGTDFTLRISRVEAEDVGVYYCAQNLENPRTFGGGTKLEMKR
notes: Fab, periplasmic extract
B9: ING-1 light chain L99Y (Fab, V domains shown)
VH: QIQLVQSGPELKKPGETVKISCKASGYTFTKYGMNWVKQAPGKGLKWMGWINTYTEEPTYGDDFKGRFAFSLETSASTANLQINNLKSEDTATYFCARFGSAVDYWGQGTSVTVSS
VL: DIVMTQAAFSNPVTLGTSGSISCRSSKSLLHSNGITYLYWYLQKPGQSPQLLIYQMSNLASGVPDRFSSSGSGTDFTLRISRVEAEDVGVYYCAQNLEYPRTFGGGTKLEMKR
notes: Fab, periplasmic extract
B10: ING-1 light chain L99S (Fab, V domains shown)
VH: QIQLVQSGPELKKPGETVKISCKASGYTFTKYGMNWVKQAPGKGLKWMGWINTYTEEPTYGDDFKGRFAFSLETSASTANLQINNLKSEDTATYFCARFGSAVDYWGQGTSVTVSS
VL: DIVMTQAAFSNPVTLGTSGSISCRSSKSLLHSNGITYLYWYLQKPGQSPQLLIYQMSNLASGVPDRFSSSGSGTDFTLRISRVEAEDVGVYYCAQNLESPRTFGGGTKLEMKR
notes: Fab, periplasmic extract
B11: ING-1 light chain P100H (Fab, V domains shown)
VH: QIQLVQSGPELKKPGETVKISCKASGYTFTKYGMNWVKQAPGKGLKWMGWINTYTEEPTYGDDFKGRFAFSLETSASTANLQINNLKSEDTATYFCARFGSAVDYWGQGTSVTVSS
VL: DIVMTQAAFSNPVTLGTSGSISCRSSKSLLHSNGITYLYWYLQKPGQSPQLLIYQMSNLASGVPDRFSSSGSGTDFTLRISRVEAEDVGVYYCAQNLELHRTFGGGTKLEMKR
notes: Fab, periplasmic extract
B12: ING-1 light chain P100N (Fab, V domains shown)
VH: QIQLVQSGPELKKPGETVKISCKASGYTFTKYGMNWVKQAPGKGLKWMGWINTYTEEPTYGDDFKGRFAFSLETSASTANLQINNLKSEDTATYFCARFGSAVDYWGQGTSVTVSS
VL: DIVMTQAAFSNPVTLGTSGSISCRSSKSLLHSNGITYLYWYLQKPGQSPQLLIYQMSNLASGVPDRFSSSGSGTDFTLRISRVEAEDVGVYYCAQNLELNRTFGGGTKLEMKR
notes: Fab, periplasmic extract
B13: ING-1 light chain Q55D (Fab, V domains shown)
VH: QIQLVQSGPELKKPGETVKISCKASGYTFTKYGMNWVKQAPGKGLKWMGWINTYTEEPTYGDDFKGRFAFSLETSASTANLQINNLKSEDTATYFCARFGSAVDYWGQGTSVTVSS
VL: DIVMTQAAFSNPVTLGTSGSISCRSSKSLLHSNGITYLYWYLQKPGQSPQLLIYDMSNLASGVPDRFSSSGSGTDFTLRISRVEAEDVGVYYCAQNLELPRTFGGGTKLEMKR
notes: Fab, periplasmic extract
B14: ING-1 light chain P100D (Fab, V domains shown)
VH: QIQLVQSGPELKKPGETVKISCKASGYTFTKYGMNWVKQAPGKGLKWMGWINTYTEEPTYGDDFKGRFAFSLETSASTANLQINNLKSEDTATYFCARFGSAVDYWGQGTSVTVSS
VL: DIVMTQAAFSNPVTLGTSGSISCRSSKSLLHSNGITYLYWYLQKPGQSPQLLIYQMSNLASGVPDRFSSSGSGTDFTLRISRVEAEDVGVYYCAQNLELDRTFGGGTKLEMKR
notes: Fab, periplasmic extract
B15: ING-1 light chain P100E (Fab, V domains shown)
VH: QIQLVQSGPELKKPGETVKISCKASGYTFTKYGMNWVKQAPGKGLKWMGWINTYTEEPTYGDDFKGRFAFSLETSASTANLQINNLKSEDTATYFCARFGSAVDYWGQGTSVTVSS
VL: DIVMTQAAFSNPVTLGTSGSISCRSSKSLLHSNGITYLYWYLQKPGQSPQLLIYQMSNLASGVPDRFSSSGSGTDFTLRISRVEAEDVGVYYCAQNLELERTFGGGTKLEMKR
notes: Fab, periplasmic extract
B16: ING-1 light chain P100R (Fab, V domains shown)
VH: QIQLVQSGPELKKPGETVKISCKASGYTFTKYGMNWVKQAPGKGLKWMGWINTYTEEPTYGDDFKGRFAFSLETSASTANLQINNLKSEDTATYFCARFGSAVDYWGQGTSVTVSS
VL: DIVMTQAAFSNPVTLGTSGSISCRSSKSLLHSNGITYLYWYLQKPGQSPQLLIYQMSNLASGVPDRFSSSGSGTDFTLRISRVEAEDVGVYYCAQNLELRRTFGGGTKLEMKR
notes: Fab, periplasmic extract
B17: ING-1 light chain L99H (Fab, V domains shown)
VH: QIQLVQSGPELKKPGETVKISCKASGYTFTKYGMNWVKQAPGKGLKWMGWINTYTEEPTYGDDFKGRFAFSLETSASTANLQINNLKSEDTATYFCARFGSAVDYWGQGTSVTVSS
VL: DIVMTQAAFSNPVTLGTSGSISCRSSKSLLHSNGITYLYWYLQKPGQSPQLLIYQMSNLASGVPDRFSSSGSGTDFTLRISRVEAEDVGVYYCAQNLEHPRTFGGGTKLEMKR
notes: Fab, periplasmic extract
B18: ING-1 light chain L99R (Fab, V domains shown)
VH: QIQLVQSGPELKKPGETVKISCKASGYTFTKYGMNWVKQAPGKGLKWMGWINTYTEEPTYGDDFKGRFAFSLETSASTANLQINNLKSEDTATYFCARFGSAVDYWGQGTSVTVSS
VL: DIVMTQAAFSNPVTLGTSGSISCRSSKSLLHSNGITYLYWYLQKPGQSPQLLIYQMSNLASGVPDRFSSSGSGTDFTLRISRVEAEDVGVYYCAQNLERPRTFGGGTKLEMKR
notes: Fab, periplasmic extract
B19: ING-1 light chain P100Q (Fab, V domains shown)
VH: QIQLVQSGPELKKPGETVKISCKASGYTFTKYGMNWVKQAPGKGLKWMGWINTYTEEPTYGDDFKGRFAFSLETSASTANLQINNLKSEDTATYFCARFGSAVDYWGQGTSVTVSS
VL: DIVMTQAAFSNPVTLGTSGSISCRSSKSLLHSNGITYLYWYLQKPGQSPQLLIYQMSNLASGVPDRFSSSGSGTDFTLRISRVEAEDVGVYYCAQNLELQRTFGGGTKLEMKR
notes: Fab, periplasmic extract
B20: ING-1 light chain N33Y (Fab, V domains shown)
VH: QIQLVQSGPELKKPGETVKISCKASGYTFTKYGMNWVKQAPGKGLKWMGWINTYTEEPTYGDDFKGRFAFSLETSASTANLQINNLKSEDTATYFCARFGSAVDYWGQGTSVTVSS
VL: DIVMTQAAFSNPVTLGTSGSISCRSSKSLLHSYGITYLYWYLQKPGQSPQLLIYQMSNLASGVPDRFSSSGSGTDFTLRISRVEAEDVGVYYCAQNLELPRTFGGGTKLEMKR
notes: Fab, periplasmic extract

Target: T1, Ep-CAM (UniProt P16422 24-265, limits assumed)
T1 construct: Amine coupled to a CM5 chip in the Biacore assays
T1 sequence (looked up): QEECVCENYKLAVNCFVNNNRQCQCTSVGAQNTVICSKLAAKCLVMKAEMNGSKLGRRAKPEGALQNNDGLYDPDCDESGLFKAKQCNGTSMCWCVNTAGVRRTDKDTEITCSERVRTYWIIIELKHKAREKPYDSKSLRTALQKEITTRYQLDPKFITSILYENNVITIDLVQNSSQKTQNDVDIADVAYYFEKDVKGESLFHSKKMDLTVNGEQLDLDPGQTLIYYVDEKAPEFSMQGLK
Experiment: Biacore, Fab periplasmic extract

Binder	fold difference in affinity vs parental ING-1
B1	0.02 fold
B2	0.06 fold
B3	0.03 fold
B4	0.02 fold
B5	0.7 fold
B6	0.02 fold
B7	0.01 fold
B8	2 fold
B9	1 fold
B10	0.04 fold
B11	0.05 fold
B12	0.05 fold
B13	0.05 fold
B14	0.02 fold
B15	0.06 fold
B16	0.05 fold
B17	0.05 fold
B18	0.04 fold
B19	0.04 fold
B20	0.8 fold
